Assay results: the Human Domainome abundance scans (Beltran et al. 2025)
± gives the uncertainty stated by the source.

B1: Tesmin, residues 368 to 403; numbered along this chain, Q9Y4I5 (parent)
chain: KGCNCRRSGCLKNYCECYEAQIMCSSICKCIGCKNY

Variants of: B1
Experiment: abundance fitness (aPCA) (normalised: wild type 0, dead -1); higher = more abundant; growth selection in yeast, the domain comes from the species named
Details: Homo sapiens

Abundance fitness: each site, then its substitutions
E16: L -0.441 ± 0.11; V -0.329 ± 0.075; M -0.218 ± 0.1; G -0.086 ± 0.075; D -0.522 ± 0.28; N -0.763 ± 0.1; T -0.39 ± 0.15; S -0.57 ± 0.1; K -0.502 ± 0.13; P -0.327 ± 0.089; A -0.256 ± 0.078; Y -0.577 ± 0.14; F -0.453 ± 0.38; C -0.677 ± 0.12; Q -0.034 ± 0.082; W -0.466 ± 0.11; H -0.418 ± 0.43; R -0.341 ± 0.074
C10: Y -0.439 ± 0.12
I31: V 0.125 ± 0.074; N 0.083 ± 0.12; T 0.211 ± 0.12; A 0.309 ± 0.08; Y -0.322 ± 0.24; E 0.311 ± 0.09; R 0.056 ± 0.067; G 0.15 ± 0.074; W -0.099 ± 0.081; P 0.047 ± 0.11; F -0.171 ± 0.18; M 0.081 ± 0.08; K -0.108 ± 0.15; C -0.02 ± 0.13; L -0.021 ± 0.078; S 0.147 ± 0.081; Q 0.114 ± 0.1
G32: C -0.592 ± 0.23; D -0.454 ± 0.13; A -0.196 ± 0.084; E -0.033 ± 0.11
C24: G -0.008 ± 0.077; T -0.294 ± 0.11; K 0.262 ± 0.28; M -0.378 ± 0.089; E 0.051 ± 0.096; A -0.15 ± 0.079; W -0.647 ± 0.082; D -0.107 ± 0.1; V -0.421 ± 0.088; Q -0.072 ± 0.091; P -0.21 ± 0.1; S -0.201 ± 0.097; L -0.402 ± 0.089
I27: D 0.119 ± 0.14; M -0.014 ± 0.13; R 0.085 ± 0.07; C -1.72 ± 0.24; L -0.089 ± 0.086; S 0.009 ± 0.076; N 0.04 ± 0.098; Y -0.431 ± 0.14; Q 0.176 ± 0.089; W -0.703 ± 0.096; T 0.159 ± 0.099; A 0.162 ± 0.079; P 0.118 ± 0.096; E 0.207 ± 0.082; V 0.112 ± 0.085; K 0.153 ± 0.091
Y14: G 0.096 ± 0.073; Q 0.007 ± 0.092; M 0.153 ± 0.1; I -0.09 ± 0.1; T -0.222 ± 0.1; R 0.01 ± 0.075; N 0.267 ± 0.14; V -0.082 ± 0.072; A -0.253 ± 0.077; W -0.01 ± 0.094; S 0.047 ± 0.095; D 0.171 ± 0.11; C 0.14 ± 0.14; E 0.013 ± 0.1; K -0.02 ± 0.092; P 0.145 ± 0.09
E19: S -0.226 ± 0.093; P -0.284 ± 0.12; R -0.188 ± 0.084; M -0.18 ± 0.15; F -0.31 ± 0.29; C -0.132 ± 0.091; T -0.308 ± 0.1; Q -0.131 ± 0.1; A -0.107 ± 0.086; K -0.1 ± 0.11; G -0.043 ± 0.075; D -0.243 ± 0.12; L -0.281 ± 0.11; N -0.351 ± 0.22; V -0.201 ± 0.1
Y18: S -0.059 ± 0.076; D -0.088 ± 0.13; N 0.083 ± 0.093; H -0.016 ± 0.12; L -0.353 ± 0.078; Q 0.107 ± 0.11; R -0.153 ± 0.08; C -0.106 ± 0.1; V -0.27 ± 0.096; E 0.058 ± 0.095; A -0.03 ± 0.075; T -0.082 ± 0.13; G 0.034 ± 0.071; F -0.089 ± 0.46; I -0.318 ± 0.14; W -0.047 ± 0.11; M 0.098 ± 0.14; P -0.066 ± 0.087
K29: V 0.011 ± 0.072; C -0.048 ± 0.15; P -0.091 ± 0.09; R 0.034 ± 0.069; E 0.238 ± 0.084; H 0.419 ± 0.26; I -0.334 ± 0.34; D 0.171 ± 0.087; T 0.024 ± 0.095; M -0.016 ± 0.1; Q 0.18 ± 0.11; N 0.054 ± 0.22; S 0.051 ± 0.09; W -0.186 ± 0.087; G 0.24 ± 0.066
K12: C -0.622 ± 0.11; P -0.077 ± 0.078; R -0.359 ± 0.072; N -0.46 ± 0.24; H -0.217 ± 0.2; M -0.323 ± 0.11; T -0.201 ± 0.12; Q -0.076 ± 0.13; Y -0.831 ± 0.26; W -0.643 ± 0.1; L -0.316 ± 0.079; E 0.031 ± 0.1; V -0.014 ± 0.086; I -0.405 ± 0.27; F -0.01 ± 0.28; G -0.079 ± 0.073; A -0.05 ± 0.085; S -0.181 ± 0.09
S26: V -0.159 ± 0.083; T -0.095 ± 0.1; A 0.05 ± 0.077; Q 0.091 ± 0.1; W -1.91 ± 0.23; M -0.384 ± 0.17; P -0.624 ± 0.28; L -0.559 ± 0.16; E 0.228 ± 0.11; D -0.101 ± 0.16; C -0.98 ± 0.2; R -0.241 ± 0.081; K 0.032 ± 0.11; N -0.079 ± 0.26; F -0.651 ± 0.2; G 0.089 ± 0.073
